Laboratory results published in patent US6291645.

Molecular target: GST.119-224 (glutathione S-transferase fusion protein of the SH2 domain, residues 119-224, of p56^lck) (not provided)
Assay: competition of peptide with p62 in the GST.119-224 pull-down from HeLa lysate

| Substance | concentration that competed away p62 binding [mM] |
| --- | --- |
| pY505 phosphotyrosyl peptide (derived from the C-terminal negative regulatory region of p56^lck) | 15 |
| pY324 phosphotyrosyl peptide (derived from polyoma middle T antigen) | 1 |
